Here are results for two molecules from PMC8163507, “PHAROH lncRNA regulates Myc translation in hepatocellular carcinoma via sequestering TIAR”.

For data set [1], the target named is T1, TIAR (nucleolysin TIAR, TIAL-1) (human, UniProt Q01085 1-375).
T1 sequence: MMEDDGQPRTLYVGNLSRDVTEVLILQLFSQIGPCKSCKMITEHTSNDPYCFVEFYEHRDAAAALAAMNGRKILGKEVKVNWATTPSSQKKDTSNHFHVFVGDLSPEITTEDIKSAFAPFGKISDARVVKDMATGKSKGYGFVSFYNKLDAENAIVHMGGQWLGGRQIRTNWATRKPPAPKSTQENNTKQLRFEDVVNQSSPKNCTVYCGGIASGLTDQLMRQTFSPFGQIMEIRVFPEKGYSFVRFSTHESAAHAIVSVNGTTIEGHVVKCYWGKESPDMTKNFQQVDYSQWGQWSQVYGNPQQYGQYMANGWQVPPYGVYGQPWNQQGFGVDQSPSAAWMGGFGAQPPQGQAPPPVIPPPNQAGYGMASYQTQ
Nature of the data set: EMSA; densitometry of free probe; sequential shifts, prefers two and four copies; EMSA: ~2 fmol probe in 20 ul, 10 mM HEPES pH 7.3, 20 mM KCl, 1 mM MgCl2 (printed Mg2Cl2), 1 mM DTT, 30 ng/ul BSA, 0.01% NP-40, 5% glycerol, room temperature 30. The conditions noted are these: protein: commercial; hairpin (predicted).

Data set [2] addresses T1, TIAR (nucleolysin TIAR, TIAL-1). In words: EMSA; prefers one copy; three only at saturating TIAR; EMSA: ~2 fmol probe in 20 ul, 10 mM HEPES pH 7.3, 20 mM KCl, 1 mM MgCl2 (printed Mg2Cl2), 1 mM DTT, 30 ng/ul BSA, 0.01% NP-40, 5% glycerol, room temperature 30. Particulars: protein: commercial; label: 3' biotin; single strand; sites predicted largely in loop.

B1: PHAROH 71-nt hairpin (WT) (structured_RNA)
RNA: GAGAGGAUGCCACUGUUUUGAACUAUUUUGAAGGCACAGCCACCAGAGCUUUAGGGACAGGGUAUUUUAUC
As for B1, the Kd in data set [1] was roughly 2 nM.

B2: Myc 3' UTR 53-nt fragment (ssRNA)
RNA: GCUUCCCAUCUUUUUUCUUUUUCCUUUUAACAGAUUUGUAUUUAAUUGUUUUU
Take B2: in data set [2], the binding result is listed as “binds”.

As a reminder, the Kd is the equilibrium constant for the complex coming apart.
